The chains are these.
B1: BsAb7 (bispecific antibody)
chain 1: QVQLVESGGGVVQPGGSLRLSCAASGFVLRVNTVSWYRQAPGKQRELVALITSESNEYYDDSVKGRFTISRDNAKNTIYLHMNSLKPEDTGVYFCNFITTWGQGTQVTVSSGGGGSGGGGSGGGGSQVQLVESGGGVVQPGGSLRLSCAASGFVLRVNTVSWYRQAPGKQRELVALITSESNEYYDDSVKGRFTISRDNAKNTIYLHMNSLKPEDTGVYFCNFITTWGQGTQVTVSSDKTHTCPPCPAPESTRGPSVFLFPPKPKDTLMISRTPEVTCVVVDVSHEDPEVKFNWYVDGVEVHNAKTKPREEQYNSTYRVVSVLTVLHQDWLNGKEYKCKVSNKALPAPIEKTISKAKGQPREPQVCTLPPSRDELTKNQVSLSCAVKGFYPSDIAVEWESNGQPENNYKTTPPVLDSDGSFFLVSKLTVDKSRWQQGNVFSCSVMHEALHNHYTQKSLSLSPGK
chain 2: EVQLVESGGGLVQPGRSLRLSCAASGFTFNTYAMNWVRQAPGKGLEWVARIRSKYNNYATYYADSVKDRFTISRDDSKSIAYLQMNSLKTEDTAVYYCVRHGNFGNSYVSWFAYWGQGTLVTVSSASTKGPSVFPLAPSSKSTSGGTAALGCLVKDYFPEPVTVSWNSGALTSGVHTFPAVLQSSGLYSLSSVVTVPSSSLGTQTYICNVNHKPSNTKVDKKVEPKSCDKTHTCPPCPAPESTRGPSVFLFPPKPKDTLMISRTPEVTCVVVDVSHEDPEVKFNWYVDGVEVHNAKTKPREEQYNSTYRVVSVLTVLHQDWLNGKEYKCKVSNKALPAPIEKTISKAKGQPREPQVYTLPPCRDELTKNQVSLWCLVKGFYPSDIAVEWESNGQPENNYKTTPPVLDSDGSFFLYSKLTVDKSRWQQGNVFSCSVMHEALHNHYTQKSLSLSPGK
chain 3: QTVVTQEPSLTVSPGGTVTLTCRSSTGAVTTSNYANWVQQKPGQAPRGLIGGTNKRAPGVPARFSGSLLGGKAALTLSGVQPEDEAEYFCALWYSNLWVFGGGTKLTVLGQPKAAPSVTLFPPSSEELQANKATLVCLISDFYPGAVTVAWKADSSPVKAGVETTTPSKQSNNKYAASSYLSLTPEQWKSHRSYSCQVTHEGSTVEKTVAPTECS
B2: BsAb8 (bispecific antibody)
chain 1: EVQLVESGGGLVQPGGSLRLSCAASGRSFSSFQMGWFRQAPGKEREFVAASGWSGGPTYYWDSVIGRFTISTDNSKNTLYLQMNSLRAEDTAVYYCYEDRVLSGRPVRYWGQGTLVTVSSGGGGSGGGGSGGGGSEVQLVESGGGLVQPGGSLRLSCAASGRSFSSFQMGWFRQAPGKEREFVAASGWSGGPTYYWDSVIGRFTISTDNSKNTLYLQMNSLRAEDTAVYYCYEDRVLSGRPVRYWGQGTLVTVSSDKTHTCPPCPAPESTRGPSVFLFPPKPKDTLMISRTPEVTCVVVDVSHEDPEVKFNWYVDGVEVHNAKTKPREEQYNSTYRVVSVLTVLHQDWLNGKEYKCKVSNKALPAPIEKTISKAKGQPREPQVCTLPPSRDELTKNQVSLSCAVKGFYPSDIAVEWESNGQPENNYKTTPPVLDSDGSFFLVSKLTVDKSRWQQGNVFSCSVMHEALHNHYTQKSLSLSPGK
chain 2: EVQLVESGGGLVQPGRSLRLSCAASGFTFNTYAMNWVRQAPGKGLEWVARIRSKYNNYATYYADSVKDRFTISRDDSKSIAYLQMNSLKTEDTAVYYCVRHGNFGNSYVSWFAYWGQGTLVTVSSASTKGPSVFPLAPSSKSTSGGTAALGCLVKDYFPEPVTVSWNSGALTSGVHTFPAVLQSSGLYSLSSVVTVPSSSLGTQTYICNVNHKPSNTKVDKKVEPKSCDKTHTCPPCPAPESTRGPSVFLFPPKPKDTLMISRTPEVTCVVVDVSHEDPEVKFNWYVDGVEVHNAKTKPREEQYNSTYRVVSVLTVLHQDWLNGKEYKCKVSNKALPAPIEKTISKAKGQPREPQVYTLPPCRDELTKNQVSLWCLVKGFYPSDIAVEWESNGQPENNYKTTPPVLDSDGSFFLYSKLTVDKSRWQQGNVFSCSVMHEALHNHYTQKSLSLSPGK
chain 3: QTVVTQEPSLTVSPGGTVTLTCRSSTGAVTTSNYANWVQQKPGQAPRGLIGGTNKRAPGVPARFSGSLLGGKAALTLSGVQPEDEAEYFCALWYSNLWVFGGGTKLTVLGQPKAAPSVTLFPPSSEELQANKATLVCLISDFYPGAVTVAWKADSSPVKAGVETTTPSKQSNNKYAASSYLSLTPEQWKSHRSYSCQVTHEGSTVEKTVAPTECS
B3: MAb2 (antibody, V domains shown)
VH: EVQLVESGGGLVQPGGSLRLSCAASGFTFNDYTMDWVRQAPGKGLEWVADVNPNSGSSIYNERFKGRFTLSVDRSKNTLYLQMNSLRAEDTAVYYCARNLGPSFYFDYWGQGTLVTVSS
VL: DIQMTQSPSSLSASVGDRVTITCRASQNINNWLTWYQQKPGKAPKLLIYAASSRQTGVPSRFSGSGSGTDFTLTISSLQPEDFATYYCQQYAKLPVTFGQGTKVEIK
notes: The constant region of MAb2 is not known (human IgG1 or an IgG1 variant); also called 对照单克隆抗体; C6G9+L1A7 (inferred)

The target in the experiment is T1, HER2-His (Homo sapiens (Human), UniProt P04626 23-510).
T1 construct: Recombinant protein made in HEK293 cells; also called 重组的HER2-His; 重组HER2胞外区D1D2D3部分
Nature of the experiment: SPR (Biacore X100), antibody captured by anti-Fc on CM5 chip, HER2-His as analyte, single cycle. On the technique in general: In SPR one partner is held on a chip, and binding of the other changes the refractive index at the surface.
For the molecule B1, the Kd (usually the constant that tells how readily two partners part at equilibrium) came to 6.79 nM.
The value for B2 was 9.69 nM.
The molecule B3 yielded an equilibrium dissociation constant (Kd) of 5.31 nM. This Kd lies about 1.8-fold lower than the previous one.
